Experimental data: a protein production outcome set (Wang et al. 2014)

test: label from the status in PepcDB records

Row | Sequence | protein production
1 | MPMDFQILDADYEVVNDSGPVIRLFGRGADGKSVCCFVPDFEPYFYLKASGDLHAVARLIKDTFEQVKKVEIVEKFEPVGYQKTKKEMLRVTTRLPKDVPEIRDEILKIRDVLRAEGDWQVYESDILFRNRFLIDRALGGMVWVSAEGKPVDPVRYLGAGSAWRSRCENFACDSAVLASGLKRVENLAIAPLKYLAFDIECLPLDGGMPSPDVSPIIMISFSFEPEYKGHKTLILLAKPAAGMDGDVLSCMDETEMLNKFFEIICEYDPDIVAGYNHQDFDIPYITERVKALVAKGETINSVVGRDGSPIGYRKFGLITRTEMKGRVVVDALPLVRRAFSLKQYTLRAVSKELLSREKLDVPPLEMEEHWNDSGDKFRKFVDYARRDSELALELVLELRLLDKYIALAQVSGSLLQEIVDGGQTSMVETLLLREFGLKDRVILPKPGDELSAERYDMSSDLKGGEVLEPKKGLLENVLILDYKSLYPTIMMAHNLCYTTVVTRDRPDGKTIKPPSGGEFVPPEVFRGIVPSILEDLLNKRGDTKKRMKRTSDENEHRVLDATQLAIKILLNSFYGYSGYARARLYSLTLANAVTSFGRSNILNTRDLINGRIGKIVLRNSAALLLEEAGKLSPQDRIVELSVAYGDTDSVFVHCKAKGDLSLEEVSLVGNRLSEIVSASLPDPMELEFESVAKRALLIAKKRYALWLFEPRNSGWENKIKVKGMETVRRDWCELTSITLNRVLEFVLIEGDVDKAVEHVRKVVSDVRNLDPGKDAGIIEKLVLTRTLTRKADSYKNKQPHLTVAENLKKRTGIMPSIGTRIPFVITAGKGLFVDRAEDPDYVRENNVPIDVDYYVKKQILPPVERILEVFGVKMSSLDFDAKQKGLFDFEVKKPEAKKQEKSSSQKGTNGKILEKAPEEKARYSENGRVEQRSLFDF | failed
2 | MPMKSWIKTLLITLLAAALCLLFARVVLPPLLVQLIPPSWEGGPWFWVNLLLAGFLAGLVVAPLLRTRRYYPVPLLLLLSVLVVVGNWAQNRCNDAQLQAIEQLERRSASHSNLGISNEEPAPSAPVDVSATPGVWAHEQGDGYGYSCNRPGETQGFLMPQLMSFGINVLGLLLALLIGPGRRRAR | failed
3 | MPNANEDNPSALSQVQRRAVSELLRVSPVADELARRFQEAGFSLALVGGSVRDALLGRLGNDLDFTTDARPEDVLKIVRPWADAMWEVGIAFGTVGAQKEGYQIEVTTYRSEAYDRTSRKPEVSYGDSIEEDLVRRDFTVNAMAVALPEKEFIDPHGGLDDLAARILRTPGTPEESFSDDPLRMMRAARFAAQLDFEVAPDVVTAMTEMAGRIDIVSAERVRDELNKLVLSAHPRKGLTLLVDTGLADHVLPELPALRLERDEHHRHKDVYDHSLIVLEQAIALEENGPDLTLRLAALLHDIGKPRTRRFEKDGRVSFHHHEVVGAKMTKKRMTALKYSNDLVKDVSRLVELHLRFHGYGTGEWTDSAVRRYVRDAGPLLDRLHKLTRSDCTTRNKRRAAALSRAYDGLEERIAQLQEQEELDAIRPDLDGNQIMEVLGVGPGPVIGQAYKFLLELRLENGPMEYDAAVAALKEWWAEQN | failed
4 | MPNELSRSLSPYLLMHANDPVEWRMWSKETLRIATEENRLIFLSIGYSSCHWCHVMHEESFVDPDVAEILNNNYIPVKVDREERPDLDSYFMKVSQVINGNGGWPLNIILLPDARPVFAMTYVPKEDRNGMTGLKTILIQLSQMYLKDPDQFKDQAKAVSDAMEERESV | not failed
5 | MPNGPTCAARRARARSALVGGEGFRMEWSGKRVSDGSATRPTVAAWVSGGFGSGESVAAFKALATEAEAGDASAQRRLGLCFRDGLGTDRDIHRAKAWYQRSAAQNDPMAALELGLMLESGLGISSDHGEAGKWYRVALDLWRDRAEGGDALGQFVLGLCHEVGAGVPAAHREALKWYGRSAERGCAHAQWALGRLHEDGLGVVRDYSEAVRCYRAAAFQGHARACFNLGLMAELGLGMVRDADCSASWYGKALEVWRRWAELGDPAAATALAAMYEAGHGVAKDYAVAVCWYRRAARQGNPLAQFELGRLSMEGRGVERNDVEAVGWFRLAAERGHADAQFHLGLMHEHGRGVTRRFEEAFRWYDKAADEGPARRWDAFHRLVPAAGEVPEGCGLGAW | failed
6 | MPNHQPVKKFKIIGGACKGLGLNLPNISSTRPTKAIVRESFFNTLQAEINGAHFIEVFSGSASMGLEALSRGAKSAVFFEQNKSAYKTLLENISLFKNRLKKEMEIQTFLDDAFKLLPTLCLKNGVLNIIYLDPPFETSGFLGIYEKCFQALERLLKRFNPKNLLVVFEHESMHEMPKSLVTLAIIKQKKFGKTTLTYFQ | failed
7 | MPNLSCGVDNCAYNQNDMCSLNSIKVNGSFANHSEATCCGSFVEKGGFTNAAVDMGPAEPATSVACEAEKCCYNKNCKCHAESIDISGDYAQHQDNTECSTFRQELEHHHHHH | not failed
8 | MPNNVKITSSHRVLMIALLAAAFACYLLVEPYINSIVMAFIISLLMFPVHEWFERKMPKHKNSASLLTCVVLTFIIVIPLLFVFAAIVQQGSVFSQNTYKWVTNGGIQDIFQHPWVIKGLSIVNEYLPFDKIEPKAIAEKIGQFATTFGSNLVAISAKILGDATNFLMDFFLMLFVLFFLLRDHDKIISAIRHILPLSRSQEDRILTEIEQVSKSAVMGSFLTAIAQGLAGGIGMWLAGFPGLFWGTMMGFASFIPVVGTALIWIPAAAYLFLTGDMTWAIFLTAWSVVIVGSIDNLLRPLLMQGSAGMNTLMIFFSLLGGLHLFGLIGLIYGPLIFAVTMVLFNIYEEEFKDFLNQQDNS | failed
9 | MPNQSNESRPFHKDLESILYAHVPLPMFTMDEEGALLNMNEGAMETLRVDWEQNQRSSVFQLFESECRESLYLALATVNKISQVEKVELIKRNGETFETFCLSLQLLPDKQVIAFIAPLIDKGMDPLTGVPIRQEVPRLMERTFQENQAETYVLFLINLDRFKLVNDSLGEGYGDQVLQTLVRRLLWQLPNQQWIARVSGDEFIACAAIKGELPKKETLATYISSIIQQPFQVDEVQFTMTASIGAAVYPMDGKSVEMIWNSLERALRHAKARGGNCVSWFCQELKDEWIHPFRLENDLRRAVENQELELYFQPIFETTTGEHCGEEVLVRWNHPALGVLGPNFFIPVAEEIGLIGVVGKWVLDEACKQKALLIEKEASSVPMSVNLSLRQFLQPDIVDMILDSLNKYGLDPSLLEVEVTERITIDMNRAMKVLQKLRAQGIRVSLDDFGTGYSSLQYISQLPIQKLKIDKSFIAEIGVNSQVEAIISMIIHLGHELDLTVVAEGVETEKQLSFLKEKKCDTVQGYYHAKPLTFSEFKKYLLS | failed
10 | MPPGTTLQGGKYRLEQVLGQGGFGITYLGSQTQLGARVAIKELFPSGSTRQSGQYVLPPAGTDPAGWAQAKQDFTAEGRTVARFNHPDIVRVMDLFEENGTAYLVMEFLEGQTLGSAIEKRGPLPPDEVVNIAKRVLGALSVVHSAGMLHRDIKPDNIYLDKAGRTVLIDFGSARTFAAGQTVSHTRLVTPGYAPLEQYSGSAKFGPYTDIYALGATLYHALTGHPPTPATDRTMGTPLAPLPPNTPPALREAIERSLAIKINERPQSTQEVLALLNQVSVAPQSAPAAPAPRPTPPQRNQTFPPAPQPTPQRQPQRPPQPVPQPPAQRRRGPGCGCLFPLLLLGGLALYGMNVLGPLLSPSQTETTTTSEQTQPEPPAQTPTTPTEDPTIPQAPGTTDSGQDWQSGDSIDLGLPGSNGETPAQTDNTATPETTTQGNAGTETNPTTTPETNTSTAPTSGELVVTAPNVTLRSAADAAANSLGTLAAGSTVQILQTQDGWYEVQTTSGQRGWVGTDAALPPVSAEALKALQTAAGQGGDVQLSPGVYRLQEPLVLSQDAHLTGAGRDRTWITSAAGNAVLTTRGNVSLQGVTVGWTGQTPGGALLAEGGTVTLRDARLTGGVRDETRNESGSGLQLSQGAQGDVQGSDLVGNAYGASVSDTAQLKLKDSTLSDNSLGGAIFLDSSGGEVRGSTLERNGGDGLTVRHTAAPVIVDSELRDNGERGLSVEGQAKPTVKRVTASGNTLQGIGVQDDAQPQLSNNKLTGNGQEGLTYADRAGGRASENELSGNQVGIAVQGSAAPELRTNIIRDSRDAGLSYAGQAGGTARGNTITGSAKPGISLWGEAQPTLSSNVIQGGAQSGIVFAEHAGGTLDSNEVLGNALSGLVVRDTAAPEVRGNTFQDNGKAAMVYEGEAGGRVSGNTCQGNGSDVIELHLTSVLAGPDLSGASCAVQTQGNW | failed
11 | MPPGVAVCFSSLFIRLVCMAFLTSSDKALWHLALPMIFSNITVPLLGLVDTAVIGHLDSPVYLGGVAVGATATSFLFMLLLFLRMSTTGLTAQAYGAKNPQALARTLVQPLLLALGAGALIALLRTPIIDLALHIVGGSEAVLEQARRFLEIRWLSAPASLANLVLLGWLLGVQYARAPVILLVVGNILNIVLDVWLVMGLHMNVQGAALATVIAEYATLLIGLLMVRKILKLRGISGEMLKTAWRGNFRRLLALNRDIMLRSLLLQLCFGAITVLGARLGSDIIAVNAVLMTLLTFTAYALDGFAYAVEAHSGQAYGARDGSQLLDVWRAACRQSGIVALLFSVVYLLAGEHIIALLTSLTQIQQLADRYLIWQVILPVVGVWCYLLDGMFIGATRATEMRNSMAVAAAGFALTLLTLPWLGNHALWLALTVFLALRGLSLAAIWRRHWRNGTWFAAT | failed
12 | MPPPIHPSSSAAPGPVPNHLIWAIVSTVLGFCLCCPALISGIVAIVFSSKVNGLLNQGDIDGARRASNTAKTWCIVTSVLAAIGLLINIGMVATGGMQGYMDYMQQLQHMQ | failed
13 | MPPPLPYDAMRSVWTDTAAPAMATAPLAGHADCDVAIVGAGITGLSAALHLAERGLRACVLEARDPGWGASGRNGGQVIPGIKHDPDEILARHGRERGEPLLHMVGTAADTVFDLIDRYGLDLVQAQIRLAAGERLDRVVPADLQPSGHAIELRVYAEDPVRFIPSPGTLAVFELPQGPGVRTETGYHAGNAVSPHYDPMIAKIIVHGADRAQAIARAEQALADTEIAGVKTNLPFLARALAFEPWRQGRLHTGIVARTLAEPAPAALTALEHHHHHH | failed
14 | MPPQRRRRPEPEAPAPGRRGRRPEKKKSRGKRVLLWTGGSMAFVVLVAGVGGYVYLKHLEGNVSTTDVGTAGSSSFKKDEAFNILIIGTDKRTGEGNEGYGDKGSAGHADTNILLHVAEDRSNATALSIPRDLIVDIPDCETTQEDGTKKVIPGTSGVRFNQSLGDFGRDAGCTMRTVAETTGIKPDHFMMADFNAVKTLTTAVDGVDVCVEHAVDDPKSHLKLPAGESKVEGEQALAFVRTRHAFGNEGDLDRIKVQQQFLGSLMRKMASGDTLTSPTKLVKLAEAATKALTVDSAIGKVGTLKDIALELKKVPTKNITFTTVPVIDNPAEKVKATVVVNEAKGPQVFDMIKNDISFTEVEQQKKKEKAAVAARLKGEKSEPGEVRVRVMNGGAPAGSAQQELAYLQTQAGVSKSENAGNAPADIAKTTLEYAPDQADQARALAEILGLTGAAMKPGESVTNSQGLPTMTLTLGKDFKGAGVKLDGSVKKPDLDTESTADQKLCAS | failed
15 | MPPRIEDILPHRGSMLLLAHVDTWDDETLRASAHVDPTAWYADPEGAMPAWFGIELMAQAIAAHVGLLSMREGNPARPGVLLGSRKYEAHAPAFAPAQPLSIAVQEVLRSTEGHGAYACTIAAGGRDLAQAVIKVYQPTDFQAFIEGLEHHHHHH | failed
